Data: the supplement of paper PMC5998384

Key:
HeLa Kyoto [1] = test: thermal stability score vs G1/S (z-score of summed log2 fold changes over temperatures); higher = more thermally stable than in G1/S
HeLa Kyoto [2] = test: solubility change mitosis vs G1/S (difference of NP-40 vs SDS log2 ratios) (log2 ratio difference); higher = more soluble in mitosis
HeLa Kyoto [3] = test: melting temperature (median over replicates), in situ; higher = more thermally stable
HeLa Kyoto [4] = test: solubility in G1/S (NP-40 vs SDS abundance) (log2 ratio); higher = more soluble; settings: cell cycle stage: G1/S
[5] = cell cycle stage: early G1 (4.5 h after nocodazole release)
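For melting temperature (median over replicates), in situ in this document: HeLa Kyoto cells synchronized by double thymidine or nocodazole block, proteins quantified by TMT10plex mass spectrometry, three independent biological replicates.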
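For solubility change mitosis vs G1/S (difference of NP-40 vs SDS log2 ratios) in this document: synchronized HeLa Kyoto cells (double thymidine block for G1/S, nocodazole release for mitosis), protein amounts in NP-40 versus SDS lysates quantified by mass spectrometry, three biological replicates.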
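For solubility in G1/S (NP-40 vs SDS abundance) in this document: HeLa Kyoto cells arrested at G1/S by double thymidine block, proteins quantified by TMT10plex mass spectrometry in mild NP-40 versus SDS extracts, three biological replicates.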
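For thermal stability score vs G1/S (z-score of summed log2 fold changes over temperatures) in this document: synchronized HeLa Kyoto cells, proteins quantified by TMT10plex mass spectrometry, three biological replicates, mitosis taken 0.5 h after nocodazole release, G1/S directly after double thymidine block.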

| Sequence | thermal stability score (HeLa Kyoto [1]; [5]) | thermal stability score (HeLa Kyoto [1]; cell cycle stage: mitosis) | solubility change mitosis (log2) (HeLa Kyoto [2]) | melting temperature (HeLa Kyoto [3]; cell cycle stage: G1/S) | melting temperature (HeLa Kyoto [3]; cell cycle stage: mitosis) | solubility in G1/S (log2) (HeLa Kyoto [4]) |
| --- | --- | --- | --- | --- | --- | --- |
| MPSKFSCRQLREAGQCFESFLVVRGLDMETDRERLRTIYNRDFKISFGTPAPGFSSMLYGMKIANLAYVTKTRVRFFRLDRWADVRFPEKRRMKLGSDISKHHKSLLAKIFYDRAEYLHGKHGVDVEVQGPHEARDGQLLIRLDLNRKEVLTLRLRNGGTQSVTLTHLFPLCRTPQFAFYNEDQELPCPLGPGECYELHVHCKTSFVGYFPATVLWELLGPGESGSEGAGTFYIARFLAAVAHSPLAAQLKPMTPFKRTRITGNPVVTNRIEEGERPDRAKGYDLELSMALGTYYPPPRLRQLLPMLLQGTSIFTAPKEIAEIKAQLETALKWRNYEVKLRLLLHLEELQMEHDIRHYDLESVPMTWDPVDQNPRLLTLEVPGVTESRPSVLRGDHLFALLSSETHQEDPITYKGFVHKVELDRVKLSFSMSLLSRFVDGLTFKVNFTFNRQPLRVQHRALELTGRWLLWPMLFPVAPRDVPLLPSDVKLKLYDRSLESNPEQLQAMRHIVTGTTRPAPYIIFGPPGTGKTVTLVEAIKQVVKHLPKAHILACAPSNSGADLLCQRLRVHLPSSIYRLLAPSRDIRMVPEDIKPCCNWDAKKGEYVFPAKKKLQEYRVLITTLITAGRLVSAQFPIDHFTHIFIDEAGHCMEPESLVAIAGLMEVKETGDPGGQLVLAGDPRQLGPVLRSPLTQKHGLGYSLLERLLTYNSLYKKGPDGYDPQFITKLLRNYRSHPTILDIPNQLYYEGELQACADVVDRERFCRWAGLPRQGFPIIFHGVMGKDEREGNSPSFFNPEEAATVTSYLKLLLAPSSKKGKARLSPRSVGVISPYRKQVEKIRYCITKLDRELRGLDDIKDLKVGSVEEFQGQERSVILISTVRSSQSFVQLDLDFNLGFLKNPKRFNVAVTRAKALLIIVGNPLLLGHDPDWKVFLEFCKENGGYTGCPFPAKLDLQQGQNLLQGLSKLSPSTSGPHSHDYLPQEREGEGGLSLQVEPEWRNEL [MOV10] | -0.801 | -2.06 | -0.141 | 52.9 °C | 51.1 °C | -0.355 |
| MPSKKKKYNARFPPARIKKIMQTDEEIGKVAAAVPVIISRALELFLESLLKKACQVTQSRNAKTMTTSHLKQCIELEQQFDFLKDLVASVPDMQGDGEDNHMDGDKGARRGRKPGSGGRKNGGMGTKSKDKKLSGTDSEQEDESEDTDTDGEEETSQPPPQASHPSAHFQSPPTPFLPFASTLPLPPAPPGPSAPDEEDEEDYDS [DRAP1] | -2.19 | -2.89 | 0.215 | 56.9 °C | 55.7 °C | 0.748 |
| MPSSLLGAAMPASTSAAALQEALENAGRLIDRQLQEDRMYPDLSELLMVSAPNNPTVSGMSDMDYPLQGPGLLSVPNLPEISSIRRVPLPPELVEQFGHMQCNCMMGVFPPISRAWLTIDSDIFMWNYEDGGDLAYFDGLSETILAVGLVKPKAGIFQPHVRHLLVLATPVDIVILGLSYANLQTGSGVLNDSLSGGMQLLPDPLYSLPTDNTYLLTITSTDNGRIFLAGKDGCLYEVAYQAEAGWFSQRCRKINHSKSSLSFLVPSLLQFTFSEDDPILQIAIDNSRNILYTRSEKGVIQVYDLGQDGQGMSRVASVSQNAIVSAAGNIARTIDRSVFKPIVQIAVIENSESLDCQLLAVTHAGVRLYFSTCPFRQPLARPNTLTLVHVRLPPGFSASSTVEKPSKVHRALYSKGILLMAASENEDNDILWCVNHDTFPFQKPMMETQMTAGVDGHSWALSAIDELKVDKIITPLNKDHIPITDSPVVVQQHMLPPKKFVLLSAQGSLMFHKLRPVDQLRHLLVSNVGGDGEEIERFFKLHQEDQACATCLILACSTAACDREVSAWATRAFFRYGGEAQMRFPTTLPPPSNVGPILGSPVYSSSPVPSGSPYPNPSFLGTPSHGIQPPAMSTPVCALGNPATQATNMSCVTGPEIVYSGKHNGICIYFSRIMGNIWDASLVVERIFKSGNREITAIESSVPCQLLESVLQELKGLQEFLDRNSQFAGGPLGNPNTTAKVQQRLIGFMRPENGNPQQMQQELQRKFHEAQLSEKISLQAIQQLVRKSYQALALWKLLCEHQFTIIVAELQKELQEQLKITTFKDLVIRDKELTGALIASLINCYIRDNAAVDGISLHLQDICPLLYSTDDAICSKANELLQRSRQVQNKTEKERMLRESLKEYQKISNQVDLSNVCAQYRQVRFYEGVVELSLTAAEKKDPQGLGLHFYKHGEPEEDIVGLQAFQERLNSYKCITDTLQELVNQSKAAPQSPSVPKKPGPPVLSSDPNMLSNEEAGHHFEQMLKLSQRSKDELFSIALYNWLIQVDLADKLLQVASPFLEPHLVRMAKVDQNRVRYMDLLWRYYEKNRSFSNAARVLSRLADMHSTEISLQQRLEYIARAILSAKSSTAISSIAADGEFLHELEEKMEVARIQLQIQETLQRQYSHHSSVQDAVSQLDSELMDITKLYGEFADPFKLAECKLAIIHCAGYSDPILVQTLWQDIIEKELSDSVTLSSSDRMHALSLKIVLLGKIYAGTPRFFPLDFIVQFLEQQVCTLNWDVGFVIQTMNEIGVPLPRLLEVYDQLFKSRDPFWNRMKKPLHLLDCIHVLLIRYVENPSQVLNCERRRFTNLCLDAVCGYLVELQSMSSSVAVQAITGNFKSLQAKLERLH [NUP155] | -2.62 | -3.4 | -0.126 | 50.6 °C | 48.8 °C | -0.247 |
| MPTESASCSTARQTKQKRKSHSLSIRRTNSSEQERTGLPRDMLEGQDSKLPSSVRSTLLELFGQIEREFENLYIENLELRREIDTLNERLAAEGQAIDGAELSKGQLKTKASHSTSQLSQKLKTTYKASTSKIVSSFKTTTSRAACQLVKEYIGHRDGIWDVSVAKTQPVVLGTASADHTALLWSIETGKCLVKYAGHVGSVNSIKFHPSEQLALTASGDQTAHIWRYAVQLPTPQPVADTSISGEDEVECSDKDEPDLDGDVSSDCPTIRVPLTSLKSHQGVVIASDWLVGGKQAVTASWDRTANLYDVETSELVHSLTGHDQELTHCCTHPTQRLVVTSSRDTTFRLWDFRDPSIHSVNVFQGHTDTVTSAVFTVGDNVVSGSDDRTVKVWDLKNMRSPIATIRTDSAINRINVCVGQKIIALPHDNRQVRLFDMSGVRLARLPRSSRQGHRRMVCCSAWSEDHPVCNLFTCGFDRQAIGWNINIPALLQEK [WDR37] | -0.8 | -0.627 | -0.117 | 53.3 °C |  | 0.0178 |
| MPTGFVAPILCVLLPSPTREAATVASATGDSASERESAAPAAAPTAEAPPPSVVTRPEPQALPSPAIRAPLPDLYPFGTMRGGGFGDRDRDRDRGGFGARGGGGLPPKKFGNPGERLRKKKWDLSELPKFEKNFYVEHPEVARLTPYEVDELRRKKEITVRGGDVCPKPVFAFHHANFPQYVMDVLMDQHFTEPTPIQCQGFPLALSGRDMVGIAQTGSGKTLAYLLPAIVHINHQPYLERGDGPICLVLAPTRELAQQVQQVADDYGKCSRLKSTCIYGGAPKGPQIRDLERGVEICIATPGRLIDFLESGKTNLRRCTYLVLDEADRMLDMGFEPQIRKIVDQIRPDRQTLMWSATWPKEVRQLAEDFLRDYTQINVGNLELSANHNILQIVDVCMESEKDHKLIQLMEEIMAEKENKTIIFVETKRRCDDLTRRMRRDGWPAMCIHGDKSQPERDWVLNEFRSGKAPILIATDVASRGLDVEDVKFVINYDYPNSSEDYVHRIGRTARSTNKGTAYTFFTPGNLKQARELIKVLEEANQAINPKLMQLVDHRGGGGGGGGRSRYRTTSSANNPNLMYQDECDRRLRGVKDGGRRDSASYRDRSETDRAGYANGSGYGSPNSAFGAQAGQYTYGQGTYGAAAYGTSSYTAQEYGAGTYGASSTTSTGRSSQSSSQQFSGIGRSGQQPQPLMSQQFAQPPGATNMIGYMGQTAYQYPPPPPPPPPSRK [DDX17] | 3.12 | 5.66 | 0.16 | 49.1 °C | 49.8 °C | -0.381 |
| MPTVSVKRDLLFQALGRTYTDEEFDELCFEFGLELDEITSEKEIISKEQGNVKAAGASDVVLYKIDVPANRYDLLCLEGLVRGLQVFKERIKAPVYKRVMPDGKIQKLIITEETAKIRPFAVAAVLRNIKFTKDRYDSFIELQEKLHQNICRKRALVAIGTHDLDTLSGPFTYTAKRPSDIKFKPLNKTKEYTACELMNIYKTDNHLKHYLHIIENKPLYPVIYDSNGVVLSMPPIINGDHSRITVNTRNIFIECTGTDFTKAKIVLDIIVTMFSEYCENQFTVEAAEVVFPNGKSHTFPELAYRKEMVRADLINKKVGIRETPENLAKLLTRMYLKSEVIGDGNQIEIEIPPTRADIIHACDIVEDAAIAYGYNNIQMTLPKTYTIANQFPLNKLTELLRHDMAAAGFTEALTFALCSQEDIADKLGVDISATKAVHISNPKTAEFQVARTTLLPGLLKTIAANRKMPLPLKLFEISDIVIKDSNTDVGAKNYRHLCAVYYNKNPGFEIIHGLLDRIMQLLDVPPGEDKGGYVIKASEGPAFFPGRCAEIFARGQSVGKLGVLHPDVITKFELTMPCSSLEINVGPFL [FARSB] | 2.32 | 0.692 | -0.031 | 50.4 °C | 50.2 °C | 0.00374 |
| MPVAGSELPRRPLPPAAQERDAEPRPPHGELQYLGQIQHILRCGVRKDDRTGTGTLSVFGMQARYSLRDEFPLLTTKRVFWKGVLEELLWFIKGSTNAKELSSKGVKIWDANGSRDFLDSLGFSTREEGDLGPVYGFQWRHFGAEYRDMESDYSGQGVDQLQRVIDTIKTNPDDRRIIMCAWNPRDLPLMALPPCHALCQFYVVNSELSCQLYQRSGDMGLGVPFNIASYALLTYMIAHITGLKPGDFIHTLGDAHIYLNHIEPLKIQLQREPRPFPKLRILRKVEKIDDFKAEDFQIEGYNPHPTIKMEMAV [TYMS] | -0.449 | 1.58 | -0.0717 | 49.2 °C | 49 °C | -0.0779 |
| MPVDLSKWSGPLSLQEVDEQPQHPLHVTYAGAAVDELGKVLTPTQVKNRPTSISWDGLDSGKLYTLVLTDPDAPSRKDPKYREWHHFLVVNMKGNDISSGTVLSDYVGSGPPKGTGLHRYVWLVYEQDRPLKCDEPILSNRSGDHRGKFKVASFRKKYELRAPVAGTCYQAEWDDYVPKLYEQLSGK [PEBP1] | -0.593 | -3.2 | 0.21 | 56.9 °C | 57.3 °C | 0.607 |
| MPVKGGTKCIKYLLFGFNFIFWLAGIAVLAIGLWLRFDSQTKSIFEQETNNNNSSFYTGVYILIGAGALMMLVGFLGCCGAVQESQCMLGLFFGFLLVIFAIEIAAAIWGYSHKDEVIKEVQEFYKDTYNKLKTKDEPQRETLKAIHYALNCCGLAGGVEQFISDICPKKDVLETFTVKSCPDAIKEVFDNKFHIIGAVGIGIAVVMIFGMIFSMILCCAIRRNREMV [CD9] | 2.82 | 0.357 | -0.149 | 62.4 °C | 60.4 °C | -0.0106 |
| MPVQLSEHPEWNESMHSLRISVGGLPVLASMTKAADPRFRPRWKVILTFFVGAAILWLLCSHRPAPGRPPTHNAHNWRLGQAPANWYNDTYPLSPPQRTPAGIRYRIAVIADLDTESRAQEENTWFSYLKKGYLTLSDSGDKVAVEWDKDHGVLESHLAEKGRGMELSDLIVFNGKLYSVDDRTGVVYQIEGSKAVPWVILSDGDGTVEKGFKAEWLAVKDERLYVGGLGKEWTTTTGDVVNENPEWVKVVGYKGSVDHENWVSNYNALRAAAGIQPPGYLIHESACWSDTLQRWFFLPRRASQERYSEKDDERKGANLLLSASPDFGDIAVSHVGAVVPTHGFSSFKFIPNTDDQIIVALKSEEDSGRVASYIMAFTLDGRFLLPETKIGSVKYEGIEFI [CANT1] | -0.646 | -1.1 | -0.137 | 55.2 °C | 54.6 °C | 0.0305 |
